In patent publication US20230103407A1:

Molecular target: mannose receptor (UniProt Q61830)
Experiment: cell-based or functional assay

mannose receptor, sequence (Q61830 20-1456 limits assumed): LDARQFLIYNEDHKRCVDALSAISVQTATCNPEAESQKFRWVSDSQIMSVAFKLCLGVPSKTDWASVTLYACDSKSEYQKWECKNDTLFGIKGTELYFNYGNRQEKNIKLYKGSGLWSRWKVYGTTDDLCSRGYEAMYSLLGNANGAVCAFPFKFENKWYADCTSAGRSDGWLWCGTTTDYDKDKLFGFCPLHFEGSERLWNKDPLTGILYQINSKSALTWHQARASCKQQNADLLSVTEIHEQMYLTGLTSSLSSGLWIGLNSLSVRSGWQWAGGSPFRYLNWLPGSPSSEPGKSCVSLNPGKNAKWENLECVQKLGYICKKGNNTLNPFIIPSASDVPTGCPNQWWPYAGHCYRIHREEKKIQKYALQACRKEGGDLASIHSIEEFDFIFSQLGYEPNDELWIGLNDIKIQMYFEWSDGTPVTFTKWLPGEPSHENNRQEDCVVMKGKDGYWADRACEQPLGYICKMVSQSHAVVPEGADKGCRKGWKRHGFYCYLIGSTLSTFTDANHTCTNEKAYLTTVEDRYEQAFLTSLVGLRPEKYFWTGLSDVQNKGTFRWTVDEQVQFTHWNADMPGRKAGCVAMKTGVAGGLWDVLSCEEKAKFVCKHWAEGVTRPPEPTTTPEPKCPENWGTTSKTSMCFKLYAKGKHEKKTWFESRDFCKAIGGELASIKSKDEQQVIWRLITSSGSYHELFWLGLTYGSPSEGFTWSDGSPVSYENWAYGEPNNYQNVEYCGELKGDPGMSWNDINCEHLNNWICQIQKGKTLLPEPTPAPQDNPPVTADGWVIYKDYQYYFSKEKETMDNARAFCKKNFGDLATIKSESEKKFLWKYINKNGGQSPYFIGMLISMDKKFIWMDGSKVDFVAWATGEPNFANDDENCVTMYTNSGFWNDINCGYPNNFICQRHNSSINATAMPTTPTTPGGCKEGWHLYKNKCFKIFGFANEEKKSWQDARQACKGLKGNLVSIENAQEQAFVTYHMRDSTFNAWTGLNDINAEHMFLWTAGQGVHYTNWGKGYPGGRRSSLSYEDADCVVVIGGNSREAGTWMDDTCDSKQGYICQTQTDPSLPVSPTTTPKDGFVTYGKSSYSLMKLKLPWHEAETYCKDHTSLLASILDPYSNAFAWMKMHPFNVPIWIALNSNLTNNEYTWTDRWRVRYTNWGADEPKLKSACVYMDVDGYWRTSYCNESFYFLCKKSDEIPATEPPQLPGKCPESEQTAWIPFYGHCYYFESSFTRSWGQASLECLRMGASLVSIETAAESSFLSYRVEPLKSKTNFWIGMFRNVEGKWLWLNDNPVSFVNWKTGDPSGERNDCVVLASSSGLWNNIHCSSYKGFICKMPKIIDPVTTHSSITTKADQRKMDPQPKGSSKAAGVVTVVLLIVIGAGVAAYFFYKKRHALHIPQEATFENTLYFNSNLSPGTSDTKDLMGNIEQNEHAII

GCase uptake (net GCase activity) blocked by mannan in J774E macrophages or Gba1-/- neurons: 20%
Substance: SapC-DOPS-GCase nanovesicles
